# Reference: publication PMC6771245, “CMKLR1-targeting peptide tracers for PET/MR imaging of breast cancer” (Theranostics, 2019)
# Several values for one entry are separate records, joined by “and”; a condition that tells them apart may be missing. Equal values may be shown once. *1 amine or outer side, *2 acyl side, *3 side chain or, on linkers, in order; H or OH if unused. Where a SMILES comes first, the peptide text is derived from it. [ ]: non-standard residue; d: D form. The star is where a group is joined. X1 = O=C(O)CN1CCN(CC(=O)O)CCN(CC(=O)NCCCOCCOCCOCCCN*)CCN(CC(=O)O)CC1; DOTA = O=C(O)CN1CCN(CC(=O)O)CCN(CC(=O)*)CCN(CC(=O)O)CC1; NH(CH2)9CO = O=C(CCCCCCCCCN[*:1])[*:2]; Hyp = O=C(O)[C@@H]1C[C@@H](O)CN1; Tic = O=C(O)[C@@H]1Cc2ccccc2CN1; Cha = N[C@@H](CC1CCCCC1)C(=O)O; Cit = NC(=O)NCCC[C@H](N)C(=O)O; Suc = O=C(CCC(=O)[*:2])[*:1]; Octanoyl = CCCCCCCC(=O)*; Ahx = NCCCCCC(=O)O
# How the values were obtained:
# huCMKLR1 [1] = molecular target: T1, huCMKLR1 (Homo sapiens, UniProt Q99788); assay: Competitive radioligand binding with ^125I-chemerin-9, membranes of HEK293a cells stably expressing huCMKLR1 and Gα16; conditions: unlabeled compound; radioligand ^125I-chemerin-9, 5 µg membrane, 1 h 37 °C; three independent experiments, mean ± SD; read-out: competition binding IC50 w/o ^natGa
# T1 construct: expressed in transfected cells; host or cells: HEK293a (membrane preparations)
# T1 sequence (Q99788 1-373): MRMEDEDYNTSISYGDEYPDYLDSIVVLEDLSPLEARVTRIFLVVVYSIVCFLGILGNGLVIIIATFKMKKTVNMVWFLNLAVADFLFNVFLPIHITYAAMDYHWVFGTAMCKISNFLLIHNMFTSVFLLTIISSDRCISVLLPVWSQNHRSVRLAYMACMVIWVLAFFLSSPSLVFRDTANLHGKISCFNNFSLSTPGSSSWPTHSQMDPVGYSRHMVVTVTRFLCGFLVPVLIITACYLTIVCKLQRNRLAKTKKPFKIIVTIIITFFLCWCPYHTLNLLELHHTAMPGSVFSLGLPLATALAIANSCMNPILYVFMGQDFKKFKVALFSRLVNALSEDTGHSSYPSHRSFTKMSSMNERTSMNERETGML
# Protocol: (§1) For in vitro analysis, HEK293a stably transfected with huCMKLR1 and Gα16 were used. For the in vivo mouse model, the human breast cancer cell line DU4475 with endogenous CMKLR1 expression and the target-negative human lung carcinoma cell line A549 were used. All cell lines were obtained from ATCC/LGC Standards (Wesel, Germany) and were cultured in RPMI1640 medium containing 10% fetal bovine serum (both from Biochrom, Berlin, Germany) and, in case of transfected cells, selection agents G418 (Biochrom, Berlin, Germany) and zeocin (Invitrogen, Carlsbad, USA).
# Competitive binding studies were performed with cell membrane preparations. […] […].
# (§2) All statistical analyses were performed using GraphPad Prism 5.04. EC50/IC50 values were determined by nonlinear sigmoidal curve fitting with variable slope setting, and normalized response for competitive binding results. Multiple group comparisons were done by a two-way ANOVA and Bonferroni post hoc test. All presented data are based on independent experiments. Normalizations and statistics are further defined in each figure legend.
# huCMKLR1 [2] = molecular target: T1, huCMKLR1; assay: Calcium mobilization assay; type: cell-based; conditions: HEK293a huCMKLR1 Gα16 cells, Fluo-4 AM; three independent experiments, mean ± SD; read-out: Ca^2+ assay EC50
# Protocol: as §1
# Optical ViewPlate 96-well microplates (PerkinElmer, Waltham, USA) were coated with poly-D-lysine (10 µg/mL, 50 µL/well) for 30 minutes at 37 °C, washed with PBS and air dried before seeding 40,000 HEK293a huCMKLR1 Gα16 cells per well. The next day, cells were starved with serum-free medium for 30 minutes and incubated with loading medium consisting of serum-free medium with 2.5 mM probenicid (Sigma-Aldrich, St. Louis, USA) and 2 µM Fluo-4 AM (Thermo Fisher Scientific, Waltham, USA). After a loading time of 45 minutes, cells were washed with 100 μL C1 buffer (130 mM NaCl, 5 mM KCl, 10 mM 4-(2-hydroxyethyl)-1-piperazineethanesulfonic acid [HEPES], 2 mM CaCl2, 10 mM glucose) followed by 20 minutes of incubation in the dark. After another washing and incubation cycle, the cell plate was placed into the CellLux Calcium Imaging System (PerkinElmer, Waltham, USA) and the assay was performed automatically according to the following protocol. After a baseline measurement for 30 seconds, the ligands (prepared in C1 buffer with 0.5% BSA in double concentration and pipetted in a U-bottom plate) were added on top of the cells and the fluorescence intensity was recorded for further 60 seconds. Obtained raw data were analyzed using AssayPro (PerkinElmer, Waltham, USA). After spatial uniformity correction, maximum response values (F) were normalized to baseline values (F0) of each well using the following equation:
# response = ΔF/F0 = (F - F0)/F0.
# as §2
# [3] = Determination of LogD7.4 values; type: physicochemical; conditions: shake-flask octanol/PBS pH 7.4; 3 µL of 1 mM solution, 300 µL per phase, vortex 1 min, centrifuged 5 min 10,000 x g; HPLC peak area octanol/buffer, both phases analysed
# Protocol: Compounds (3 µL of a 1 mM solution) were diluted into 300 µL PBS pH 7.4 or octanol and mixed. 300 µL of the other phase was added, followed by vigorous mixing using a vortex shaker for one minute. The two phases were centrifuged (5 min, 10,000 x g). Following separation, 25 µL aliquots were removed for HPLC analysis. LogD7.4 was calculated by taking the logarithm of the ratio of the high-performance liquid chromatography (HPLC) peak area of each compound in octanol to the corresponding peak area in buffer. Consequently, logD7.4 values were based on analysis of both aqueous and octanol fractions.
# [4] = test system: DU4475/A549 xenograft model; assay: in vivo; conditions: mouse
# Text: (§3) For in vivo experiments, at least 8-week-old female athymic NMRI-Foxn1^nu /Foxn1^nu mice (Janvier Labs, Saint-Berthevin, France) were used. Animal care followed institutional guidelines and all experiments were approved by local animal research authorities. For the generation of tumor xenografts, 5 x 10^6 cells of both DU4475 and A549 cells were inoculated subcutaneously into the right and left shoulder, respectively (1:1 phosphate-buffered saline [PBS]/Matrigel Basement Membrane Matrix High Concentration, Corning, Corning, USA). Part of the animals received SW13 lung cancer cells as a CMKLR1-negative control tumor. For the analysis of biodistribution, only data of […] and A549 xenograft tumors are used. Tumors were allowed to grow for two to four weeks (tumor volume > 100 mm^3) after cell inoculation.
# (§4) Radiolabeling of peptide-DOTA conjugates was carried out manually using ^177Lu from ITG Isotope Technologies Garching GmbH (Garching, Germany). A total of 50 µL (stock solution of peptide at 1 µg/µL in 10% DMSO in water) was added to 200 µL of acetate buffer (sodium acetate/acetic acid buffer, 0.4 M, pH 5.0) and 120 µL of gentisic solution prepared by dissolving 50 mg of gentisic acid in 1 mL of acetate buffer. The resulting mixture was then added to 35 µL of ^177Lu (1 GBq in aqueous 0.04 M HCl) and the reaction mixture was heated at 96 °C for 30 minutes followed by cooling for 10 minutes at room temperature. The product was then diluted with 5 mL of saline and used directly for animal experiments.
# (§5) Tumor-bearing mice were injected with approximately 10 MBq of ^68Ga-labeled DOTA-peptide or 1 MBq of ^177Lu-labeled DOTA-peptide to the tail vein via a catheter. […] Tumor, blood, stomach, pancreas, small intestine, colon, liver, spleen, kidney, heart, lung, muscle and femur samples were weighed and uptake of radioactivity was measured by a gamma counter. To determine the effect of unlabeled ligand on the tumor uptake, 200 nmol CG34 peptide (100-fold excess) was co-injected.
# in vivo = conditions: female, athymic NMRI-Foxn1^nu/Foxn1^nu, mouse, iv, 1 MBq, total radioactivity
# Text: as §3, §4, §5
SMILES,IC50 (huCMKLR1 [1]),EC50 (huCMKLR1 [2]),logD [3],also measured
C[C@@H](NC(=O)[C@H](Cc1ccccc1)NC(=O)[C@H](CCCNC(N)=O)NC(=O)CNC(=O)[C@@H]1C[C@@H](O)CN1C(=O)[C@H](CC1CCCCC1)NC(=O)[C@@H](N)Cc1ccc(O)cc1)C(=O)N1Cc2ccccc2C[C@H]1C(=O)N[C@@H](CO)C(=O)O [CG34] (H-Y[Cha][Hyp]G[Cit]F[dA][Tic]S-OH),1 nM,0.4 nM,–,–
CSCC[C@H](NC(=O)CNC(=O)[C@@H]1CCCN1C(=O)[C@H](CC1CCCCC1)NC(=O)[C@@H](N)Cc1ccc(O)cc1)C(=O)N[C@@H](Cc1ccc(O)cc1)C(=O)N[C@@H](C)C(=O)N[C@@H](Cc1ccccc1)C(=O)N[C@H](Cc1ccccc1)C(=O)O [CG36] (H-Y[Cha]PGMYAF[dF]-OH),0.1 nM,0.9 nM,–,–
C[C@@H](NC(=O)[C@H](Cc1ccccc1)NC(=O)[C@H](CCCNC(N)=O)NC(=O)CNC(=O)[C@@H]1C[C@@H](O)CN1C(=O)[C@H](CC1CCCCC1)NC(=O)[C@H](Cc1ccc(O)cc1)NC(=O)CCCCCCCCCNC(=O)CN1CCN(CC(=O)O)CCN(CC(=O)O)CCN(CC(=O)O)CC1)C(=O)N1Cc2ccccc2C[C@H]1C(=O)N[C@@H](CO)C(=O)O [DOTA-ADX-CG34] ({DOTA}-[NH(CH2)9CO]Y[Cha][Hyp]G[Cit]F[dA][Tic]S-OH),0.65 ± 0.15 nM,0.65 ± 0.1 nM,1.35 ± 0.31,–
C[C@@H](NC(=O)[C@H](Cc1ccccc1)NC(=O)[C@H](CCCNC(N)=O)NC(=O)CNC(=O)[C@@H]1C[C@@H](O)CN1C(=O)[C@H](CC1CCCCC1)NC(=O)[C@H](Cc1ccc(O)cc1)NC(=O)CCCCCNC(=O)CN1CCN(CC(=O)O)CCN(CC(=O)O)CCN(CC(=O)O)CC1)C(=O)N1Cc2ccccc2C[C@H]1C(=O)N[C@@H](CO)C(=O)O [DOTA-AHX-CG34] ({DOTA-Ahx}-Y[Cha][Hyp]G[Cit]F[dA][Tic]S-OH),1.05 ± 0.81 nM,0.79 ± 0.28 nM,-0.96 ± 0.2,–
CSCC[C@H](NC(=O)CNC(=O)[C@@H]1CCCN1C(=O)[C@H](CC1CCCCC1)NC(=O)[C@H](Cc1ccc(O)cc1)NC(=O)CCCCCNC(=O)CN1CCN(CC(=O)O)CCN(CC(=O)O)CCN(CC(=O)O)CC1)C(=O)N[C@@H](Cc1ccc(O)cc1)C(=O)N[C@@H](C)C(=O)N[C@@H](Cc1ccccc1)C(=O)N[C@H](Cc1ccccc1)C(=O)O [DOTA-AHX-CG36] ({DOTA-Ahx}-Y[Cha]PGMYAF[dF]-OH),0.13 ± 0.08 nM,1.53 nM,2.27 ± 0.47,–
CCCCCCCC(=O)NCCCC[C@H](NC(=O)CN1CCN(CC(=O)O)CCN(CC(=O)O)CCN(CC(=O)O)CC1)C(=O)N[C@@H](Cc1ccc(O)cc1)C(=O)N[C@@H](CC1CCCCC1)C(=O)N1C[C@H](O)C[C@H]1C(=O)NCC(=O)N[C@@H](CCCNC(N)=O)C(=O)N[C@@H](Cc1ccccc1)C(=O)N[C@H](C)C(=O)N1Cc2ccccc2C[C@H]1C(=O)N[C@@H](CO)C(=O)O [DOTA-KCap-CG34] ({DOTA}-K(Octanoyl)Y[Cha][Hyp]G[Cit]F[dA][Tic]S-OH),0.44 ± 0.16 nM,1.34 ± 0.14 nM,1.29 ± 0.68,–
C[C@@H](NC(=O)[C@H](Cc1ccccc1)NC(=O)[C@H](CCCNC(N)=O)NC(=O)CNC(=O)[C@@H]1C[C@@H](O)CN1C(=O)[C@H](CC1CCCCC1)NC(=O)[C@H](Cc1ccc(O)cc1)NC(=O)CCC(=O)NCCCOCCOCCOCCCNC(=O)CN1CCN(CC(=O)O)CCN(CC(=O)O)CCN(CC(=O)O)CC1)C(=O)N1Cc2ccccc2C[C@H]1C(=O)N[C@@H](CO)C(=O)O [DOTA-TTDS-CG34] ({X1-Suc}-Y[Cha][Hyp]G[Cit]F[dA][Tic]S-OH),0.66 nM and ~0.6 nM,–,-1.01 ± 0.39,–
"C[C@@H](NC(=O)[C@H](Cc1ccccc1)NC(=O)[C@H](CCCNC(N)=O)NC(=O)CNC(=O)[C@@H]1C[C@@H](O)CN1C(=O)[C@H](CC1CCCCC1)NC(=O)[C@H](Cc1ccc(O)cc1)NC(=O)CCCCCNC(=O)CN1CCN(CC(=O)O)CCN(CC(=O)O)CCN(CC(=O)O)CC1)C(=O)N1Cc2ccccc2C[C@H]1C(=O)N[C@@H](CO)C(=O)O [[^177Lu]Lu-DOTA-AHX-CG34, metal not drawn] ({DOTA-Ahx}-Y[Cha][Hyp]G[Cit]F[dA][Tic]S-OH)",–,–,–,DU4475 uptake after 24 hours as % of the 1 h-value [4]: approx. 64%; decrease of DU4475 tumor signal from one to 24 hours p.i. [4]: approximately 36%; higher uptake in DU4475 than A549 [4]: 1.4 fold; tissue uptake at 1 h (in vivo; A549 tumor uptake): 2.3 %ID/g; tissue uptake at 24 h (in vivo; A549 tumor uptake): 0.4 %ID/g; tissue uptake at 1 h (in vivo; DU4475 tumor uptake): 3.3 %ID/g; tissue uptake at 24 h (in vivo; DU4475 tumor uptake): 2.1 %ID/g; tissue uptake at 1 h (in vivo; kidneys uptake): 4.7 %ID/g; tissue uptake at 24 h (in vivo; kidneys uptake): 1 %ID/g; tissue uptake at 1 h (in vivo; lung uptake): 5.6 %ID/g; tissue uptake at 1 h (in vivo; spleen uptake): 5.8 %ID/g; tissue uptake at 24 h (in vivo; spleen uptake): 1.7 %ID/g
